From publication PMC4390438

Molecular target: T1, dopamine D2 receptor (mouse (endogenous in C57BL/6 brain slices)), P61168
T1 chain: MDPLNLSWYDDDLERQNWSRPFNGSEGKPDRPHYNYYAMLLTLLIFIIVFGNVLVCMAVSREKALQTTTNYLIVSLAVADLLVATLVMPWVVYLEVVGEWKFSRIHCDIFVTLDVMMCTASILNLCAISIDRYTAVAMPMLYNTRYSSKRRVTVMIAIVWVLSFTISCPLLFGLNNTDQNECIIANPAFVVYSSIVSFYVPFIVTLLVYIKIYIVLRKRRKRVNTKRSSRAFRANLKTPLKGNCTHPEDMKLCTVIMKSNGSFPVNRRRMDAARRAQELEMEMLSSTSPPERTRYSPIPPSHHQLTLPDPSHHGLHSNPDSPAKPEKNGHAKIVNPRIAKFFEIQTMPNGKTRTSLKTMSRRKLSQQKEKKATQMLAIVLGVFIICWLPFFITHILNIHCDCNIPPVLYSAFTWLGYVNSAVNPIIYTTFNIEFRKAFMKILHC
Test: proximity ligation
Details: remark: other sources report otherwise

B1: dopamine D1 receptor, Q61616 1-446 (receptor)
chain: MAPNTSTMDETGLPVERDFSFRILTACFLSLLILSTLLGNTLVCAAVIRFRHLRSKVTNFFVISLAVSDLLVAVLVMPWKAVAEIAGFWPFGSFCNIWVAFDIMCSTASILNLCVISVDRYWAISSPFQYERKMTPKAAFILISVAWTLSVLISFIPVQLSWHKAKPTWPLDGNFTSLEDAEDDNCDTRLSRTYAISSSLISFYIPVAIMIVTYTSIYRIAQKQIRRISALERAAVHAKNCQTTTGNGNPVECSQSESSFKMSFKRETKVLKTLSVIMGVFVCCWLPFFISNCMVPFCGSEETQPFCIDSITFDVFVWFGWANSSLNPIIYAFNADFQKAFSTLLGCYRLCPTTNNAIETVSINNNGAVMFSSHHEPRGSISKDCNLVYLIPHAVGSSEDLKREEAGGIPKPLEKLSPALSVILDYDTDVSLEKIQPVTHSGQHST
PLA dots per µm^2: 0.283 dots/µm^2
